Holding throughout (experiment): IEDB peptide-MHC binding, purified MHC/competitive/radioactivity; ≥ and ≤ were set here for values at or beyond the usual limits of such assays
Common to all, as to conditions: source organism: Bordetella pertussis

Test [1] concerns the target HLA-B*44:03.
Test [2] has as its target HLA-A*02:01.
For test [3], the target named is HLA-B*35:01.
Test [4] deals with HLA-B*53:01.
The target in test [5] is HLA-B*57:01.
Test [6] concerns the target HLA-B*07:02.

pIC50: −log10 of the molar value.

The values below come from the Immune Epitope Database (IEDB).

As to AESNALSKR, the negative logarithm of the IC50 (pIC50) in test [1] is 4.35.
Consider AGLAGPSAV, for which the negative logarithm of the IC50 (pIC50) in test [2] is at most 4.11.
With DAKHDLTVT, in test [3], the negative logarithm of the IC50 (pIC50) is 4.16.
For DENGKPQTY, the negative-log IC50 (pIC50) in test [1] is 4.94.
Regarding FAISAYALK, in test [4], the negative logarithm of the IC50 (pIC50) was 5.35.
For FALYDGTYL, in test [3], the pIC50 was 4.68.
With GLDVQQGTV, the negative logarithm of the IC50 (pIC50) in test [2] is 4.22.
For the sequence KAGTIAAPW, the pIC50 in test [5] was 6.53.
For KEDVDAAQI, the pIC50 in test [1] is 4.47.
As to LAAVLVNPH, in test [3], the negative-log IC50 (pIC50) is 4.16.
Regarding QSIVEAPEL, the negative logarithm of the IC50 (pIC50) in test [2] was 4.34.
For the sequence TGDGGGHTD, the pIC50 in test [4] was 4.16.
In the case of TPLGSLFAI, the negative-log IC50 (pIC50) in test [3] was 5.87; in test [4] it was 5.09.
Regarding YATNPQTQL, the pIC50 in test [6] is 4.16.
Turning to YEYIWGLYP, the negative-log IC50 (pIC50) in test [1] is 5.08.
The same measure, in the same setting: in the case of YEYSKGPKL it was 4.32.
